A word on the EC50: it is the concentration that produces a half-maximal response.

Read-outs that look alike come from different tables or passages of the source.

First the molecules themselves.
B1: Tie-2/Fc (Fc fusion, human, UniProt Q02763 23-748, looked up)
chain: AMDLILINSLPLVSDAETSLTCIASGWRPHEPITIGRDFEALMNQHQDPLEVTQDVTREWAKKVVWKREKASKINGAYFCEGRVRGEAIRIRTMKMRQQASFLPATLTMTVDKGDNVNISFKKVLIKEEDAVIYKNGSFIHSVPRHEVPDILEVHLPHAQPQDAGVYSARYIGGNLFTSAFTRLIVRRCEAQKWGPECNHLCTACMNNGVCHEDTGECICPPGFMGRTCEKACELHTFGRTCKERCSGQEGCKSYVFCLPDPYGCSCATGWKGLQCNEACHPGFYGPDCKLRCSCNNGEMCDRFQGCLCSPGWQGLQCEREGIQRMTPKIVDLPDHIEVNSGKFNPICKASGWPLPTNEEMTLVKPDGTVLHPKDFNHTDHFSVAIFTIHRILPPDSGVWVCSVNTVAGMVEKPFNISVKVLPKPLNAPNVIDTGHNFAVINISSEPYFGDGPIKSKKLLYKPVNHYEAWQHIQVTNEIVTLNYLEPRTEYELCVQLVRRGEGGEGHPGPVRRFTTASIGLPPPRGLNLLPKSQTTLNLTWQPIFPSSEDDFYVEVERRSVQKSDQQNIKVPGNLTSVLLNNLHPREQYVVRARVNTKAQGEWSEDLTAWTLSDILPPQPENIKISNITHSSAVISWTILDGYSISSITIRYKVQGKNEDQHVDVKIKNATITQYQLKGLEPETAYQVDIFAENNIGSSNPAFSHELVTLPESQAPADLGGGKMLL
B3: Recombinant human angiopoietin-1 (ligand, UniProt Q15389 16-498, looked up)
chain: HIGCSNQRRSPENSGRRYNRIQHGQCAYTFILPEHDGNCRESTTDQYNTNALQRDAPHVEPDFSSQKLQHLEHVMENYTQWLQKLENYIVENMKSEMAQIQQNAVQNHTATMLEIGTSLLSQTAEQTRKLTDVETQVLNQTSRLEIQLLENSLSTYKLEKQLLQQTNEILKIHEKNSLLEHKILEMEGKHKEELDTLKEEKENLQGLVTRQTYIIQELEKQLNRATTNNSVLQKQQLELMDTVHNLVNLCTKEGVLLKGGKREEEKPFRDCADVYQAGFNKSGIYTIYINNMPEPKKVFCNMDVNGGGWTVIQHREDGSLDFQRGWKEYKMGFGNPSGEYWLGNEFIFAITSQRQYMLRIELMDWEGNRAYSQYDRFHIGNEKQNYRLYLKGHTGTAGKQSSLILHGADFSTKDADNDNCMCKCALMLTGGWWFDACGPSNLNGMFYTAGQNHGKLNGIKWHYFKGPSYSLRSTTMMIRPLDF
B5: Recombinant human angiopoietin-2 (ligand, UniProt O15123 19-496, looked up)
chain: YNNFRKSMDSIGKKQYQVQHGSCSYTFLLPEMDNCRSSSSPYVSNAVQRDAPLEYDDSVQRLQVLENIMENNTQWLMKLENYIQDNMKKEMVEIQQNAVQNQTAVMIEIGTNLLNQTAEQTRKLTDVEAQVLNQTTRLELQLLEHSLSTNKLEKQILDQTSEINKLQDKNSFLEKKVLAMEDKHIIQLQSIKEEKDQLQVLVSKQNSIIEELEKKIVTATVNNSVLQKQQHDLMETVNNLLTMMSTSNSAKDPTVAKEEQISFRDCAEVFKSGHTTNGIYTLTFPNSTEEIKAYCDMEAGGGGWTIIQRREDGSVDFQRTWKEYKVGFGNPSGEYWLGNEFVSQLTNQQRYVLKIHLKDWEGNEAYSLYEHFYLSSEELNYRIHLKGLTGTAGKISSISQPGNDFSTKDGDNDKCICKCSQMLTGGWWFDACGPSNLNGMYYPQRQNTNKFNGIKWYYWKGSGYSLKATTMMIRPADF

Holding throughout (experiment): ELISA
Test [1] deals with Recombinant VWF fragment D’-D3-HPC4.
Test [2] addresses Recombinant human angiopoietin-2 (human) (UniProt O15123).
The target of test [3] is B3.
Test [4] deals with B5.
Test [5] deals with B5. The source holds these as a separate data set.
For the test “Tie-2/Fc”, the target named is B1.
For test [6], the target named is von Willebrand factor (plasma-derived) (human (endogenous in plasma), UniProt P04275 764-2813).

For the molecule “Recombinant FVIII (from UniProt P00451 20-2351) (natural protein)”, the maximal percent inhibition of binding to Ang-2 in test [1] was determined as 77%.
Regarding “Recombinant VWF fragment D’-D3-HPC4 (domain or fragment)”, the EC50 in test [2] was found to be 159 nM.
For the molecule B1, the EC50 in test [3] and in test [4] was 0.2 ± 0.1 nM each time.

B2: Recombinant VWF A2 domain fused to Fc (Fc fusion)
chain: PGLLGVSTLGPKRNSMVLDVAFVLEGSDKIGEADFNRSKEFMEEVIQRMDVGQDSIHVTVLQYSYMVTVEYPFSEAQSKGDILQRVREIRYQGGNRTNTGLALRYLSDHSFLVSQGDREQAPNLVYMVTGNPASDEIKRLPGDIQVVPIGVGPNANVQELERIGWPNAPILIQDFETLPREAPDLVLQRCCSG
Take B2: the EC50 in test [5] is 36.7 ± 9.7 nM.
As for B3, the binding result in the test with Tie-2/Fc was “binds”.

B4: Recombinant VWF D4 domain fused to Fc (Fc fusion)
chain: PCVCTGSSTRHIVTFDGQNFKLTGSCSYVLFQNKEQDLEVILHNGACSPGARQGCMKSIEVKHSALSVELHSDMEVTVNGRLVSVPYVGGNMEVNVYGAIMHEVRFNHLGHIFTFTPQNNEFQLQLSPKTFASKTYGLCGICDENGANDFMLRDGTVTTDWKTLVQEWTVQRPGQTCQPILEEQCLVPDSSHCQVLLLPLFAECHKVLAPATFYAICQQDSCHQEQVCEVIASYAHLCRTNGVCVDWRTPDFCAMSCPPSLVYNHCEHGCPRHCDGNVSSCGDHPSEGCFCPPDKVMLEGSCVPEEACTQCIGEDGVQHQFLEAWVPDHQPCQICTCLSGRKVNCTTQPCPT
In the case of B4, the EC50 in test [5] worked out at 18 ± 6 nM.
For B5, in the test with Tie-2/Fc, the binding result is listed as “binds”. Besides, the midpoint of the response in test [6], the EC50, lay at 5.3 ± 1 nM.

The record behind these values is PMC10579536 (Research and Practice in Thrombosis and Haemostasis, 2023).
